Article PMC8854672, “Tracing transport of protein aggregates in microgravity versus unit gravity crystallization” (NPJ Microgravity, 2022)
Values joined by “and” are separate entries in the source; they are usually repeats but may differ in a detail not shown here. Identical values can stand only once.

Molecular target: the molecule itself
Assay: SEC; preparative HiLoad 26/600 Superdex 200 column after glutathione affinity chromatography; tetramer V_elution about 170 mL

B1: Plasmodium falciparum glutathione-S-transferase (enzyme, UniProt Q8ILQ7 1-211, looked up)
chain: MGDNIVLYYFDARGKAELIRLIFAYLGIEYTDKRFGVNGDAFVEFKNFKKEKDTPFEQVPILQIGDLILAQSQAIVRYLSKKYNICGESELNEFYADMIFCGVQDIHYKFNNTNLFKQNETTFLNEDLPKWSGYFEKLLKKNHTNNNNDKYYFVGNNLTYADLAVFNLYDDIETKYPSSLKNFPLLKAHNEFISNLPNIKNYITNRKESVY
notes: glutathione S-transferase of Plasmodium falciparum; recombinant; printed M.W. of the dimer ~56 kDa; Found as dimer and as tetramer; The dimer for crystallization was eluted with and stabilised by 10 mM S-(p-bromobenzyl)-GSH; The tetramer was labelled with Alexa Fluor 488 only after SEC and DLS; also called PfGST
  stoichiometry N: 2 and 4
